Data as given in publication PMC4956616.
Residue numbers refer to the chain shown, from its start. Numbers in names are those of the source.

Key:
[1] = molecular target: NT-495-labeled Arl1^GTP, P40616; experiment: fluorescence anisotropy; settings: chain shown with the change;; parent: 26 ± 5
[2] = molecular target: NT-495-labeled Arl1^GTP (human) (UniProt P40616); experiment: fluorescence polarisation; fluorescence anisotropy, NT-495-labeled Arl1 titrated with DCB variants, 20°C, 50 mM Tris-HCl pH 8.0, 110 mM KCl, 1 mM DTT, 5 mM MgCl2, 0.001% Triton X-100, 0.1% Tween-20, 5 μM GTP; single-site (1:1) model

NT-495-labeled Arl1^GTP, P40616, sequence (P40616 15-181 Q71L): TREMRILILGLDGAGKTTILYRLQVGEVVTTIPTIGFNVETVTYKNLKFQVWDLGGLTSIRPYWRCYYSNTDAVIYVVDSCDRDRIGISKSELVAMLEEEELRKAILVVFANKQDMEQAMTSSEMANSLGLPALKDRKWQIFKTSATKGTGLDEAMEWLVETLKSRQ

B1: His6-DCB^BIG1 (human BIG1 residues 1–228), Q9Y6D6 L156D (protein)
chain: MYEGKKTKNMFLTRALEKILADKEVKKAHHSQLRKACEVALEEIKAETEKQSPPHGEAKAGSSTLPPVKSKTNFIEADKYFLPFELACQSKCPRIVSTSLDCLQKLIAYGHLTGNAPDSTTPGKKLIDRIIETICGCFQGPQTDEGVQLQIIKALDTAVTSQHIEIHEGTVLQAVRTCYNIYLASKNLINQTTAKATLTQMLNVIFARMENQALQEAKQMEKERHRQH
B1 was tested. Which Kd [1] did it give?
The Kd was 86 µM.

B2: His6-DCB^BIG1 (human BIG1 residues 1–228), Q9Y6D6 K105D (protein)
chain: B1 chain with K105D, D156L
Which Kd [1] does the source give for B2 here?
Its Kd is 110 µM.

B3: His6-DCB^BIG1 (human BIG1 residues 1–228), Q9Y6D6 Q200E (protein)
chain: B1 chain with D156L, Q200E
With B3 as the binder, how does the Kd [1] read?
Its Kd is 140 µM.

B4: His6-DCB^BIG1 (human BIG1 residues 1–228) (domain or fragment)
chain: B1 chain with D156L
With B4 as the binder, how does the Kd [2] read?
The Kd was 26 µM.

B5: His6-DCB^BIG1 Lys105Asp (domain or fragment)
chain: B1 chain with K105D, D156L
For B5, which fold increase of Kd against wild type [2] is on record?
Its fold increase of Kd against wild type is > 5 fold.

B6: His6-DCB^BIG1 Gln200Glu (domain or fragment)
chain: B1 chain with D156L, Q200E
B6 was tested. Which fold increase of Kd against wild type [2] did it give?
The fold increase of Kd against wild type was > 5 fold.
